Data set [1] deals with ParE-ParC55 fusion protein (topo IV) (Streptococcus pneumoniae 7785, UniProt Q59961 1-647+P72525:1-488, internal_change). The data set can be described thus: X-ray crystallography (3.7 A); 10 mM MgCl2, 2 mM levofloxacin added; drug-free complex; G-gate DNA bent, uncleaved; second linear B-form duplex at C-gate helices (ParC R468, K464, N461, H196); no ATP; Crystallization: protein in 20 mM Tris-HCl pH 7.5, 100 mM NaCl, 1 mM beta-mercaptoethanol, 0.05% Na azide, 10 mM MgCl2, 2 mM levofloxacin; 4I3H reservoir 50 mM. Conditions: protein: recombinant; tags: C-terminal His6; chain copies: 2; 34 bp duplex; 4-bp stagger between cleavage sites.

In another data set the target is ParE full-length;ParC55 (Streptococcus pneumoniae;Streptococcus …, UniProt Q59961;P72525 1-647;1-488, |). The data set is described as follows: X-ray crystallography (6.5 A); 10 mM MgCl2, 2 mM levofloxacin; cleavage complex; Crystallization: protein in 20 mM Tris-HCl pH 7.5, 100 mM NaCl, 1 mM beta-mercaptoethanol, 0.05% Na azide, 10 mM MgCl2, 2 mM levofloxacin; 4I3H reservoir 50 mM. Conditions: protein: recombinant;recombinant; chain copies: 2;2; 26mer duplex; 4-bp stagger between cleavage sites.

B1: 34mer V-site DNA (dsDNA)
DNA 1: CAAAGGCGGTAATACGGTTATCCACAGAATCAGG
DNA 2: CCTGATTCTGTGGATAACCGTATTACCGCCTTTG
For B1, the binding result in data set [1] was “binds”.

B2: 26mer E-site DNA (dsDNA)
DNA 1: AGGTCATGAATGACTATGCACGTAAA
DNA 2: TTTACGTGCATAGTCATTCATGACCT
Turning to B2, the binding result with ParE full-length;ParC55 is given as “binds”.

(Values after publication PMC3834822, “Structure of an ‘open’ clamp type II topoisomerase-DNA complex provides a mechanism for DNA capture and transport”.)
